Test results as given in article PMC10058238, “Mechanism of sphingolipid homeostasis revealed by structural analysis of Arabidopsis SPT-ORM1 complex” (Science Advances, 2023).

B1: AtSPT-ORM1 complex (LCB1, LCB2a, SPTssa, ORM1) (Arabidopsis thaliana) (protein)
chain 1: MITIPYLTAVSTYFSYGLLFAFGQLRDFFRRFIDWWFTSNLQGYAPICLGHEDFYIRRLYHRIQDCFERPISSAPDAWFDVVERYSNDNNKTLKRTTKTSRCLNLGSYNYLGFGSFDEYCTPRVIESLKKFSASTCSSRVDAGTTSVHAELEECVTRFVGKPAAVVFGMGYATNSAIIPVLIGKGGLIISDSLNHSSIVNGARGSGATIRVFQHNTPSHLERVLREQIAEGQPRTHRPWKKIIVVVEGIYSMEGEICHLPEVVAICKKYKAYVYLDEAHSIGAIGKTGKGICELLGVDTADVDVMMGTFTKSFGSCGGYIAGSKELIQYLKHQCPAHLYATSIPTPSAQQIISAIKVILGEDGSNRGAQKLARIRENSNFFRAELQKMGFEVLGDNDSPVMPIMLYNPAKIPAFSRECLRQKVAVVVVGFPATPLLLARARICISASHSREDLIRALKVISKVGDLSGIKYFPAEPKKIEQSKNDIKLD
chain 2: MANLYVKAVPPPDMNRNTEWFMYPGVWTTYMLILFFGWLVVLSVSGCSPGMAWTVVNLAHFVVTYHSFHWMKGTPFADDQGIYNGLTWWEQMDNGQQLTRNRKFLTLVPVVLYLIASHTTDYRHPWLFLNTLAVMVLVVAKFPNMHKVRIFGINGDK
chain 3: MASNLVEMFNAALNWVTMILESPSARVVLFGVPIRGHFFVEGLLGVVIIILLTRKSYKPPKRPLTEQEIDELCDEWVPEPLIPPITEDMKHEPPVLESAAGPHTTVNGKDVVNFASANYLGLIGHEKLLESCTSALEKYGVGSCGPRGFYGTIDVHLDCETRISKFLGTPDSILYSYGLSTMFSTIPCFCKKGDVIVADEGVHWGIQNGLQLSRSTIVYFKHNDMESLRITLEKIMTKYKRSKNLRRYIVAEAVYQNSGQIAPLDEIVKLKEKYRFRVILDESNSFGVLGRSGRGLAEHHSVPIEKIDVVTAAMGHALATEGGFCTGNARIIDYQRLSSSGYVFSASLPPYLASAAITAIDVIDQNPDMLVKLKQNVALLWKGLSDIKGMSLTSNRESPIVFLKLEKSSGSAKDDLLLLEKMADRALKEDSLLVVSSKRSFLDKCRLPVGIKLYVSAGHSESDLLKASESLKRLASELLLKS
notes: full-length codon-optimized cDNAs; N-terminal Flag on SPTssa, other chains untagged; HEK293F, GDN; dimer of 1:1:1:1 protomers; endogenous ceramide copurifies; with Long chain base biosynthesis protein 1; Serine palmitoyltransferase small subunit A
B2: AtSPT complex (LCB1, LCB2a, SPTssa) (Arabidopsis thaliana) (protein)
chain 1: B1 chain 1
chain 2: B1 chain 3
notes: full-length codon-optimized cDNAs; N-terminal Flag on SPTssa, other chains untagged; HEK293F, GDN; without ORM1; with Serine palmitoyltransferase small subunit A

Assays:
[1] = substrate: N[C@@H](CO)C(=O)O; assay: purified protein; conditions: 100 μM palmitoyl-CoA, 25 μM PLP, pH 7.5, 30 °C, active site in LCB2a/LCB1
[2] = substrate: CCCCCCCCCCCCCCCC(=O)SCCNC(=O)CCNC(=O)[C@H](O)C(C)(C)COP(=O)(O)OP(=O)(O)OC[C@H]1O[C@@H](n2cnc3c(N)ncnc32)[C@H](O)[C@@H]1OP(=O)(O)O; assay: purified protein; type: biochemical, Arabidopsis thaliana; conditions: 100 mM L-serine, 25 μM PLP, pH 7.5, 30 °C, active site in LCB2a/LCB1

Protein | Km [1] [mM] | K0.5 [2] [µM]
B1 | 10.44 ± 0.88 | 69.05 ± 6.13
B2 | 7.33 ± 0.65 | 8.29 ± 0.80
